Data from patent US20230374564.

Molecular target: T1, VWF73-G6PDH conjugate (inhibited G6PDH-VWF reporter enzyme complex), P11411
T1 chain 1: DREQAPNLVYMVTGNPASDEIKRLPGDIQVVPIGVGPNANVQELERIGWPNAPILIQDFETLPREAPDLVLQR
T1 chain 2: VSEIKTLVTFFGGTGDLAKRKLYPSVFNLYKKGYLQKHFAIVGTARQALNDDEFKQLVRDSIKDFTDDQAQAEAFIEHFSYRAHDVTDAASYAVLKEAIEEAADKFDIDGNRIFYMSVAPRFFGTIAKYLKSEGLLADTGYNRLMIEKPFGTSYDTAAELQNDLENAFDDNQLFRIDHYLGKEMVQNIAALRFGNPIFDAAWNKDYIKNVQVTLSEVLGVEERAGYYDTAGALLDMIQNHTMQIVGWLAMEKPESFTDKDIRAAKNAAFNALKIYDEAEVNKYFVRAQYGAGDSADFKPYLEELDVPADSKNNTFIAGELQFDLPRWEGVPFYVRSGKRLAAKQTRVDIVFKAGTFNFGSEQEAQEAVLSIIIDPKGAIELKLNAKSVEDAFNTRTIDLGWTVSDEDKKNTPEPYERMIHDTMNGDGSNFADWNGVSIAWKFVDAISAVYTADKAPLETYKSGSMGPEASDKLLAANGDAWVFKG

B1: ADAMTS-13 (A Disintegrin And Metalloproteinase with a Thrombospondin type 1 motif, member 13) (protein)
chain: AAGGILHLELLVAVGPDVFQAHQEDTERYVLTNLNIGAELLRDPSLGAQFRVHLVKMVILTEPEGAPNITANLTSSLLSVCGWSQTINPEDDTDPGHADLVLYITRFDLELPDGNRQVRGVTQLGGACSPTWSCLITEDTGFDLGVTIAHEIGHSFGLEHDGAPGSGCGPSGHVMASDGAAPRAGLAWSPCSRRQLLSLLSAGRARCVWDPPRPQPGSAGHPPDAQPGLYYSANEQCRVAFGPKAVACTFAREHLDMCQALSCHTDPLDQSSCSRLLVPLLDGTECGVEKWCSKGRCRSLVELTPIAAVHGRWSSWGPRSPCSRSCGGGVVTRRRQCNNPRPAFGGRACVGADLQAEMCNTQACEKTQLEFMSQQCARTDGQPLRSSPGGASFYHWGAAVPHSQGDALCRHMCRAIGESFIMKRGDSFLDGTRCMPSGPREDGTLSLCVSGSCRTFGCDGRMDSQQVWDRCQVCGGDNSTCSPRKGSFTAGRAREYVTFLTVTPNLTSVYIANHRPLFTHLAVRIGGRYVVAGKMSISPNTTYPSLLEDGRVEYRVALTEDRLPRLEEIRIWGPLQEDADIQVYRRYGEEYGNLTRPDITFTYFQPKPRQAWVWAAVRGPCSVSCGAGLRWVNYSCLDQARKELVETVQCQGSQQPPAWPEACVLEPCPPYWAVGDFGPCSASCGGGLRERPVRCVEAQGSLLKTLPPARCRAGAQQPAVALETCNPQPCPARWEVSEPSSCTSAGGAGLALENETCVPGADGLEAPVTEGPGSVDEKLPAPEPCVGMSCPPGWGHLDATSAGEKAPSPWGSIRTGAQAAHVWTPAAGSCSVSCGRGLMELRFLCMDSALRVPVQEELCGLASKPGSRREVCQAVPCPARWQYKLAACSVSCGRGVVRRILYCARAHGEDDGEEILLDTQCQGLPRPEPQEACSLEPCPPRWKVMSLGPCSASCGLGTARRSVACVQLDQGQDVEVDEAACAALVRPEASVPCLIADCTYRWHVGTWMECSVSCGDGIQRRRDTCLGPQAQAPVPADFCQHLPKPVTVRGCWAGPCVGQGTPSLVPHEEAAAPGRTTATPAGASLEWSQARGLLFSPAPQPRRLLPGPQENSVQSSACGRQHLEPTGTIDMRGPGQADCAVAIGRPLGEVVTLRVLESSLNCSAGDMLLLWGRLTWRKMCRKLLDMTFSSKTNTLVVRQRCGRPGGGVLLRYGSQLAPETFYRECDMQLFGPWGEIVSPSLSPATSNAGGCRLFINVAPHARIAIHALATNMGAGTEGANASYILIRDTHSLRTTAFHGQQVLYWESESSQAEMEFSEGFLKAQASLRGQYWTLQSWVPEMQDPQSWKGKEGT
- ADAMTS-13 activity (% of the norm); plasma of TTP patient 01: TTP patient 01 with 9% of the norm
- ADAMTS-13 activity (% of the norm); plasma of TTP patient 02: TTP patient 02 with 7% of the norm
- ADAMTS-13 activity (% of the norm); plasma of patient with ADAMTS-13 autoantibodies: patient with 21% of the norm
- reactivation of G6PDH activity by cleavage of coupled VWF73 (absorption at 340 nm): occurs in a concentration-dependent manner with respect to ADAMTS-13 activity
- Δ mOD/min Average; 0% normal plasma in ADAMTS-13-deficient plasma: 208 Δ mOD/min
- Δ mOD/min Average; 5% normal plasma in ADAMTS-13-deficient plasma: 215 Δ mOD/min
- Δ mOD/min Average; 10% normal plasma in ADAMTS-13-deficient plasma: 220 Δ mOD/min
- Δ mOD/min Average; 25% normal plasma in ADAMTS-13-deficient plasma: 232 Δ mOD/min
- Δ mOD/min Average; 50% normal plasma in ADAMTS-13-deficient plasma: 256 Δ mOD/min
- Δ mOD/min Average; 75% normal plasma in ADAMTS-13-deficient plasma: 286 Δ mOD/min
- Δ mOD/min Average; 100% normal plasma in ADAMTS-13-deficient plasma: 311 Δ mOD/min
- Δ mOD/min Average; plasma of Healthy donor 01: 310 Δ mOD/min
- Δ mOD/min Average; plasma of Healthy donor 02: 311 Δ mOD/min
- Δ mOD/min Average; plasma of Healthy donor 03: 307 Δ mOD/min
- Δ mOD/min Average; plasma of Healthy donor 04: 310 Δ mOD/min
- Δ mOD/min Average; plasma of Healthy donor 05: 314 Δ mOD/min
- Δ mOD/min Average; plasma of Patient with ADAMTS-13 autoantibodies: 228 Δ mOD/min
- Δ mOD/min Average; plasma of TTP patient 01: 218 Δ mOD/min
- Δ mOD/min Average; plasma of TTP patient 02: 216 Δ mOD/min
- Δ mOD/min Measurement 1; 0% normal plasma in ADAMTS-13-deficient plasma: 208 Δ mOD/min
- Δ mOD/min Measurement 1; 5% normal plasma in ADAMTS-13-deficient plasma: 216 Δ mOD/min
- Δ mOD/min Measurement 1; 10% normal plasma in ADAMTS-13-deficient plasma: 221 Δ mOD/min
- Δ mOD/min Measurement 1; 25% normal plasma in ADAMTS-13-deficient plasma: 232 Δ mOD/min
- Δ mOD/min Measurement 1; 50% normal plasma in ADAMTS-13-deficient plasma: 255 Δ mOD/min
- Δ mOD/min Measurement 1; 75% normal plasma in ADAMTS-13-deficient plasma: 286 Δ mOD/min
- Δ mOD/min Measurement 1; 100% normal plasma in ADAMTS-13-deficient plasma: 310 Δ mOD/min
- Δ mOD/min Measurement 1; plasma of Healthy donor 01: 309 Δ mOD/min
- Δ mOD/min Measurement 1; plasma of Healthy donor 02: 310 Δ mOD/min
- Δ mOD/min Measurement 1; plasma of Healthy donor 03: 305 Δ mOD/min
- Δ mOD/min Measurement 1; plasma of Healthy donor 04: 312 Δ mOD/min
- Δ mOD/min Measurement 1; plasma of Healthy donor 05: 315 Δ mOD/min
- Δ mOD/min Measurement 1; plasma of Patient with ADAMTS-13 autoantibodies: 227 Δ mOD/min
- Δ mOD/min Measurement 1; plasma of TTP patient 01: 218 Δ mOD/min
- Δ mOD/min Measurement 1; plasma of TTP patient 02: 220 Δ mOD/min
- Δ mOD/min Measurement 2; 0% normal plasma in ADAMTS-13-deficient plasma: 208 Δ mOD/min
- Δ mOD/min Measurement 2; 5% normal plasma in ADAMTS-13-deficient plasma: 216 Δ mOD/min
- Δ mOD/min Measurement 2; 10% normal plasma in ADAMTS-13-deficient plasma: 221 Δ mOD/min
- Δ mOD/min Measurement 2; 25% normal plasma in ADAMTS-13-deficient plasma: 233 Δ mOD/min
- Δ mOD/min Measurement 2; 50% normal plasma in ADAMTS-13-deficient plasma: 257 Δ mOD/min
- Δ mOD/min Measurement 2; 75% normal plasma in ADAMTS-13-deficient plasma: 288 Δ mOD/min
- Δ mOD/min Measurement 2; 100% normal plasma in ADAMTS-13-deficient plasma: 312 Δ mOD/min
- Δ mOD/min Measurement 2; plasma of Healthy donor 01: 310 Δ mOD/min
- Δ mOD/min Measurement 2; plasma of Healthy donor 02: 311 Δ mOD/min
- Δ mOD/min Measurement 2; plasma of Healthy donor 03: 309 Δ mOD/min
- Δ mOD/min Measurement 2; plasma of Healthy donor 04: 311 Δ mOD/min
- Δ mOD/min Measurement 2; plasma of Healthy donor 05: 312 Δ mOD/min
- Δ mOD/min Measurement 2; plasma of Patient with ADAMTS-13 autoantibodies: 228 Δ mOD/min
- Δ mOD/min Measurement 2; plasma of TTP patient 01: 219 Δ mOD/min
- Δ mOD/min Measurement 2; plasma of TTP patient 02: 215 Δ mOD/min
- Δ mOD/min Measurement 3; 0% normal plasma in ADAMTS-13-deficient plasma: 207 Δ mOD/min
- Δ mOD/min Measurement 3; 5% normal plasma in ADAMTS-13-deficient plasma: 214 Δ mOD/min
- Δ mOD/min Measurement 3; 10% normal plasma in ADAMTS-13-deficient plasma: 219 Δ mOD/min
- Δ mOD/min Measurement 3; 25% normal plasma in ADAMTS-13-deficient plasma: 233 Δ mOD/min
- Δ mOD/min Measurement 3; 50% normal plasma in ADAMTS-13-deficient plasma: 254 Δ mOD/min
- Δ mOD/min Measurement 3; 75% normal plasma in ADAMTS-13-deficient plasma: 286 Δ mOD/min
- Δ mOD/min Measurement 3; 100% normal plasma in ADAMTS-13-deficient plasma: 311 Δ mOD/min
- Δ mOD/min Measurement 3; plasma of Healthy donor 01: 311 Δ mOD/min
- Δ mOD/min Measurement 3; plasma of Healthy donor 02: 312 Δ mOD/min
- Δ mOD/min Measurement 3; plasma of Healthy donor 03: 306 Δ mOD/min
- Δ mOD/min Measurement 3; plasma of Healthy donor 04: 309 Δ mOD/min
- Δ mOD/min Measurement 3; plasma of Healthy donor 05: 314 Δ mOD/min
- Δ mOD/min Measurement 3; plasma of Patient with ADAMTS-13 autoantibodies: 229 Δ mOD/min
- Δ mOD/min Measurement 3; plasma of TTP patient 01: 218 Δ mOD/min
- Δ mOD/min Measurement 3; plasma of TTP patient 02: 214 Δ mOD/min
